Sequences and labels used below:
B1: LINE1-mini (parent)
chain: GGCAGAGCUCAACACAGCGUGGCAAAGUGGCUGUGGCUAGACUGCC

The variants in the data set derive from B1. Kind of data set: self-cleavage, relative activity (ratio to wild type); higher = more cleavage; in vitro, sequencing; the parent is a self-cleaving ribozyme.
In the case of GGCAGAGCUCAACACAGCGUGGCAAAGUGGAUGUGACUAGACUGCC, the self-cleavage turned out to be 0.11. Under GGCAGAGCUCAACACAGCGUGGCAAAGUGGAUGUGCCUAGACUGCC stands 0.13; under GGCAGAGCUCAACACAGCGUGGCAAAGUGGAUGUGUCUAGACUGCC, 0.12.

As for GGCAGAGCUCAACACAGCGUGGCAAAGUGGGUGUGGCUAGACCGCC, the self-cleavage was 0.05.

For the variant GGCAGAGCUCAACACAGCGUGGCAAAGUGGGUGUGGCUAGACAGCC, the self-cleavage is 0.13. For the variant GGCAGAGCUCAACACAGCGUGGCAAAGUGGGUGUGGCUAGACGGCC, the self-cleavage came out at 0.05. Then GGCAGAGCUCAACACAGCGUGGCAAAGUGGUUGUGGCUUGACUGCC, with 0.13; and GGCAGAGCUCAACACAGCGUGGCAAAGUGGUUGUGGCUCGACUGCC, with 0.12. Then GGCAGAGCUCAACACAGCGUGGCAAAGUGGUUGUGGCUGGACUGCC, with 0.05; and GGCAGAGCUCAACACAGCGUGGCAAAGUGGAUGAGGCUAGACUGCC, with 0.05; and GGCAGAGCUCAACACAGCGUGGCAAAGUGGAUGCGGCUAGACUGCC, with 0.06.

Take GGCAGAGCUCAACACAGCGUGGCAAAGUGGAUGGGGCUAGACUGCC: the self-cleavage turned out to be 0.02.

For GGCAGAGCUCAACACAGCGUGGCAAAGUGGUUCUGGCUAGACUGCC, the self-cleavage amounted to 0.15. Under GGCAGAGCUCAACACAGCGUGGCAAAGUGGUUUUGGCUAGACUGCC stands 0.06. Regarding GGCAGAGCUCAACACAGCGUGGCAAAGUGGUUAUGGCUAGACUGCC, the self-cleavage came to 0.09. In the case of GGCAGAGCUCAACACAGCGUGGCAAAGUGGAUGUGGCUAGACUUCC, the self-cleavage turned out to be 0.04.

Take GGCAGAGCUCAACACAGCGUGGCAAAGUGGAUGUGGCUAGACUCCC: the self-cleavage came out at 0.04. Under GGCAGAGCUCAACACAGCGUGGCAAAGUGGAUGUGGCUAGACUACC stands 0.06; under GGCAGAGCUCAACACAGCGUGGCAAAGUGGAUGUCGCUAGACUGCC, 0.04; under GGCAGAGCUCAACACAGCGUGGCAAAGUGGAUGUUGCUAGACUGCC, 0.06. Under GGCAGAGCUCAACACAGCGUGGCAAAGUGGAUGUAGCUAGACUGCC stands 0.04.

For the variant GGCAGAGCUCAACACAGCGUGGCAAAGUGGGUGUGGCUAGUCUGCC, the self-cleavage was 0.09. In the case of GGCAGAGCUCAACACAGCGUGGCAAAGUGGGUGUGGCUAGGCUGCC, the self-cleavage came to 0.03. Under GGCAGAGCUCAACACAGCGUGGCAAAGUGGGUGUGGCUAGCCUGCC stands 0.05; under GGCAGAGCUCAACACAGCGUGGCAAAGUGGGUGUGGCUAAACUGCC, 0.05; under GGCAGAGCUCAACACAGCGUGGCAAAGUGGGUGUGGCUACACUGCC, 0.05. Then GGCAGAGCUCAACACAGCGUGGCAAAGUGGGUGUGGCUAUACUGCC, with 0.03; and GGCAGAGCUCAACACAGCGUGGCAAAGUGGAUGUGGCUAGAGUGCC, with 0.05; and GGCAGAGCUCAACACAGCGUGGCAAAGUGGAUGUGGCUAGAUUGCC, with 0.05.

GGCAGAGCUCAACACAGCGUGGCAAAGUGGAUGUGGCUAGAAUGCC: the self-cleavage was determined as 0.04. Regarding GGCAGAGCUCAACACAGCGUGGCAAAGUGGGUGUGGCUAGAGUGCC, the self-cleavage came out at 0.06. Under GGCAGAGCUCAACACAGCGUGGCAAAGUGGGUGUGGCUAGAAUGCC stands 0.05; under GGCAGAGCUCAACACAGCGUGGCAAAGUGGGUGUGGCUAGAUUGCC, 0.09. Consider GGCAGAGCUCAACACAGCGUGGCAAAGUGGGUGUGGGUAGACUGCC, for which the self-cleavage amounted to 0.04. In the case of GGCAGAGCUCAACACAGCGUGGCAAAGUGGGUGUGGUUAGACUGCC, the self-cleavage came out at 0.05. Under GGCAGAGCUCAACACAGCGUGGCAAAGUGGGUGUGGAUAGACUGCC stands 0.09. Under GGCAGAGCUCAACACAGCGUGGCAAAGUGGUUGUUGCUAGACUGCC stands 0.07.

Take GGCAGAGCUCAACACAGCGUGGCAAAGUGGUUGUAGCUAGACUGCC: the self-cleavage came out at 0.03. Then GGCAGAGCUCAACACAGCGUGGCAAAGUGGUUGUCGCUAGACUGCC, with 0.04. Then GGCAGAGCUCAACACAGCGUGGCAAAGUGGGUGUGGCUAGACUGGC, with 0.04; and GGCAGAGCUCAACACAGCGUGGCAAAGUGGGUGUGGCUAGACUGAC, with 0.04; and GGCAGAGCUCAACACAGCGUGGCAAAGUGGGUGUGGCUAGACUGUC, with 0.08. Then GGCAGAGCUCAACACAGCGUGGCAAAGUGGAUGUGGCUAGACCGCC, with 0.05. With GGCAGAGCUCAACACAGCGUGGCAAAGUGGAUGUGGCUAGACAGCC, the self-cleavage was determined as 0.08. Turning to GGCAGAGCUCAACACAGCGUGGCAAAGUGGAUGUGGCUAGACGGCC, the self-cleavage is 0.15. For GGCAGAGCUCAACACAGCGUGGCAAAGUGGAUGUGGCUAGACUGCU, the self-cleavage amounted to 0.11. With GGCAGAGCUCAACACAGCGUGGCAAAGUGGAUGUGGCUAGACUGCG, the self-cleavage is 0.11. Then GGCAGAGCUCAACACAGCGUGGCAAAGUGGAUGUGGCUAGACUGCA, with 0.13. Under GGCAGAGCUCAACACAGCGUGGCAAAGUGGUUGUGGGUAGACUGCC stands 0.05. For the variant GGCAGAGCUCAACACAGCGUGGCAAAGUGGUUGUGGAUAGACUGCC, the self-cleavage was 0.09.

In the case of GGCAGAGCUCAACACAGCGUGGCAAAGUGGUUGUGGUUAGACUGCC, the self-cleavage worked out at 0.07. With GGCAGAGCUCAACACAGCGUGGCAAAGUGGUUGUGGCUAGACUGGC, the self-cleavage is 0.1.

With GGCAGAGCUCAACACAGCGUGGCAAAGUGGUUGUGGCUAGACUGUC, the self-cleavage worked out at 0.18.

Take GGCAGAGCUCAACACAGCGUGGCAAAGUGGUUGUGGCUAGACUGAC: the self-cleavage was determined as 0.13. With GGCAGAGCUCAACACAGCGUGGCAAAGUGGGUGCGGCUAGACUGCC, the self-cleavage was 0.14. In the case of GGCAGAGCUCAACACAGCGUGGCAAAGUGGGUGAGGCUAGACUGCC, the self-cleavage is 0.03.

For the variant GGCAGAGCUCAACACAGCGUGGCAAAGUGGGUGGGGCUAGACUGCC, the self-cleavage is 0.04. Under GGCAGAGCUCAACACAGCGUGGCAAAGUGGAUGUGGCUAGACUGAC stands 0.05.

Turning to GGCAGAGCUCAACACAGCGUGGCAAAGUGGAUGUGGCUAGACUGUC, the self-cleavage was found to be 0.13. Then GGCAGAGCUCAACACAGCGUGGCAAAGUGGAUGUGGCUAGACUGGC, with 0.06.

GGCAGAGCUCAACACAGCGUGGCAAAGUGGAUUUGGCUAGACUGCC: the self-cleavage came to 0.08.

As for GGCAGAGCUCAACACAGCGUGGCAAAGUGGAUCUGGCUAGACUGCC, the self-cleavage was found to be 0.1.

On to GGCAGAGCUCAACACAGCGUGGCAAAGUGGAUAUGGCUAGACUGCC, for which the self-cleavage came to 0.06. With GGCAGAGCUCAACACAGCGUGGCAAAGUGGUUGUGCCUAGACUGCC, the self-cleavage is 0.07.

With GGCAGAGCUCAACACAGCGUGGCAAAGUGGUUGUGUCUAGACUGCC, the self-cleavage came out at 0.06. Under GGCAGAGCUCAACACAGCGUGGCAAAGUGGUUGUGACUAGACUGCC stands 0.12. Then GGCAGAGCUCAACACAGCGUGGCAAAGUGGGUGUUGCUAGACUGCC, with 0.03; and GGCAGAGCUCAACACAGCGUGGCAAAGUGGGUGUCGCUAGACUGCC, with 0.05; and GGCAGAGCUCAACACAGCGUGGCAAAGUGGGUGUAGCUAGACUGCC, with 0.04. As for GGCAGAGCUCAACACAGCGUGGCAAAGUGGUUGUGGCUAGACUGCU, the self-cleavage is 0.23. Then GGCAGAGCUCAACACAGCGUGGCAAAGUGGUUGUGGCUAGACUGCG, with 0.08; and GGCAGAGCUCAACACAGCGUGGCAAAGUGGUUGUGGCUAGACUGCA, with 0.15. For GGCAGAGCUCAACACAGCGUGGCAAAGUGGGCGUGGCUAGACUGCC, the self-cleavage worked out at 0.08. As for GGCAGAGCUCAACACAGCGUGGCAAAGUGGGGGUGGCUAGACUGCC, the self-cleavage is 0.08. Under GGCAGAGCUCAACACAGCGUGGCAAAGUGGGAGUGGCUAGACUGCC stands 0.05; under GGCAGAGCUCAACACAGCGUGGCAAAGUGGGUGUGGCUAGACUACC, 0.05; under GGCAGAGCUCAACACAGCGUGGCAAAGUGGGUGUGGCUAGACUCCC, 0.05. In the case of GGCAGAGCUCAACACAGCGUGGCAAAGUGGGUGUGGCUAGACUUCC, the self-cleavage amounted to 0.05.

As for GGCAGAGCUCAACACAGCGUGGCAAAGUGGGUGUGGCUAGACUGCU, the self-cleavage was determined as 0.07. Then GGCAGAGCUCAACACAGCGUGGCAAAGUGGGUGUGGCUAGACUGCA, with 0.06; and GGCAGAGCUCAACACAGCGUGGCAAAGUGGGUGUGGCUAGACUGCG, with 0.04. On to GGCAGAGCUCAACACAGCGUGGCAAAGUGGAGGUGGCUAGACUGCC, for which the self-cleavage is 0.05. In the case of GGCAGAGCUCAACACAGCGUGGCAAAGUGGAAGUGGCUAGACUGCC, the self-cleavage was determined as 0.05. As for GGCAGAGCUCAACACAGCGUGGCAAAGUGGACGUGGCUAGACUGCC, the self-cleavage was 0.07. GGCAGAGCUCAACACAGCGUGGCAAAGUGGUUGUGGCUACACUGCC: the self-cleavage was 0.03. In the case of GGCAGAGCUCAACACAGCGUGGCAAAGUGGUUGUGGCUAAACUGCC, the self-cleavage was 0.04. Under GGCAGAGCUCAACACAGCGUGGCAAAGUGGGUGUGUCUAGACUGCC stands 0.05; under GGCAGAGCUCAACACAGCGUGGCAAAGUGGGUGUGACUAGACUGCC, 0.1. Then GGCAGAGCUCAACACAGCGUGGCAAAGUGGGUGUGCCUAGACUGCC, with 0.04; and GGCAGAGCUCAACACAGCGUGGCAAAGUGGGUGUGGCGAGACUGCC, with 0.03.

Consider GGCAGAGCUCAACACAGCGUGGCAAAGUGGGUGUGGCCAGACUGCC, for which the self-cleavage stood at 0.07. In the case of GGCAGAGCUCAACACAGCGUGGCAAAGUGGGUGUGGCAAGACUGCC, the self-cleavage was 0.09. Under GGCAGAGCUCAACACAGCGUGGCAAAGUGGGUGUGGCUAGACUGCC stands 0.1; under GGCAGAGCUCAACACAGCGUGGCAAAGUGGUUGUGGCUAGACUGCC, 0.26. Under GGCAGAGCUCAACACAGCGUGGCAAAGUGGAUGUGGCGAGACUGCC stands 0.03; under GGCAGAGCUCAACACAGCGUGGCAAAGUGGAUGUGGCCAGACUGCC, 0.16; under GGCAGAGCUCAACACAGCGUGGCAAAGUGGAUGUGGCAAGACUGCC, 0.12. Then GGCAGAGCUCAACACAGCGUGGCAAAGUGGUUGUGGCUAGAGUGCC, with 0.04; and GGCAGAGCUCAACACAGCGUGGCAAAGUGGUUGUGGCUAGAUUGCC, with 0.09.

As to GGCAGAGCUCAACACAGCGUGGCAAAGUGGUUGUGGCUAGAAUGCC, the self-cleavage was 0.09. Turning to GGCAGAGCUCAACACAGCGUGGCAAAGUGGGUAUGGCUAGACUGCC, the self-cleavage is 0.05. As for GGCAGAGCUCAACACAGCGUGGCAAAGUGGGUCUGGCUAGACUGCC, the self-cleavage turned out to be 0.03. For the variant GGCAGAGCUCAACACAGCGUGGCAAAGUGGGUUUGGCUAGACUGCC, the self-cleavage came out at 0.06.

As for GGCAGAGCUCAACACAGCGUGGCAAAGUGGUUGUGGCUAGUCUGCC, the self-cleavage came to 0.16. Under GGCAGAGCUCAACACAGCGUGGCAAAGUGGUUGUGGCUAGGCUGCC stands 0.04. Then GGCAGAGCUCAACACAGCGUGGCAAAGUGGUUGUGGCUAGCCUGCC, with 0.06. As for GGCAGAGCUCAACACAGCGUGGCAAAGUGGGUGUGGCUGGACUGCC, the self-cleavage is 0.03.

As for GGCAGAGCUCAACACAGCGUGGCAAAGUGGGUGUGGCUUGACUGCC, the self-cleavage came to 0.06. Regarding GGCAGAGCUCAACACAGCGUGGCAAAGUGGGUGUGGCUCGACUGCC, the self-cleavage worked out at 0.12. As for GGCAGAGCUCAACACAGCGUGGCAAAGUGGAUGUGGCUAUACUGCC, the self-cleavage was determined as 0.05. Take GGCAGAGCUCAACACAGCGUGGCAAAGUGGAUGUGGCUACACUGCC: the self-cleavage amounted to 0.04.

GGCAGAGCUCAACACAGCGUGGCAAAGUGGAUGUGGCUAAACUGCC: the self-cleavage was found to be 0.04.

(Values after the RNAGym collection of RNA variant scans (doi:10.7554/elife.90254).)
